Measurements taken from patent US20200040084A1.
Each block holds one substance with its values, some of them ahead of it.

How the values were obtained:
[1] = biological target: FcγRIIa (secondary ADCP assay, M2c macrophage effector cells) (UniProt P12318); experiment: cell-based or functional assay
[2] = biological target: FcγRIIIa (secondary ADCC assays, NK effector cells) (UniProt P08637); experiment: cell-based or functional assay
FcγRIIa = FcγRIIa (UniProt P12318); experiment: SPR, FcγRIIa binding
[3] = biological target: human FcγRIIa-H variant (Histidine at amino acid 131) on Jurkat effector cells (human) (UniProt P12318); experiment: cell-based or functional assay
[4] = biological target: FcγRIIIa on Jurkat effector cells (UniProt P08637); experiment: cell-based or functional assay

Chain of human FcγRIIa-H variant (Histidine at amino acid 131) on Jurkat effector cells (human) (P12318 34-317, change not shown): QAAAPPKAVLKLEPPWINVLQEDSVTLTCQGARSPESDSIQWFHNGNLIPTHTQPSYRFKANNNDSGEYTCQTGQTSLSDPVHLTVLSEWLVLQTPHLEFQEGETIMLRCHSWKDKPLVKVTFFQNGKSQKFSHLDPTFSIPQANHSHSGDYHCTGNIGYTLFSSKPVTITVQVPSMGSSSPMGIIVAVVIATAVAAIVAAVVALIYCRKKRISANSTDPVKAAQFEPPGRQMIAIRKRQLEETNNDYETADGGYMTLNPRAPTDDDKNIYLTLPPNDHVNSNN
Chain of FcγRIIa (P12318 34-217 limits assumed): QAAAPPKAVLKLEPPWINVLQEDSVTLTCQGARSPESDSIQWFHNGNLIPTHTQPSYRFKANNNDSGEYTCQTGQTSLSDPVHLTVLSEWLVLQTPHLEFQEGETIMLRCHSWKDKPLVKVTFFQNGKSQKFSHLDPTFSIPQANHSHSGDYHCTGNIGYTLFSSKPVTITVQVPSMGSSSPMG
Chain of fucosylated anti-PD-L1 IgG1 antibody (avelumab) (HC): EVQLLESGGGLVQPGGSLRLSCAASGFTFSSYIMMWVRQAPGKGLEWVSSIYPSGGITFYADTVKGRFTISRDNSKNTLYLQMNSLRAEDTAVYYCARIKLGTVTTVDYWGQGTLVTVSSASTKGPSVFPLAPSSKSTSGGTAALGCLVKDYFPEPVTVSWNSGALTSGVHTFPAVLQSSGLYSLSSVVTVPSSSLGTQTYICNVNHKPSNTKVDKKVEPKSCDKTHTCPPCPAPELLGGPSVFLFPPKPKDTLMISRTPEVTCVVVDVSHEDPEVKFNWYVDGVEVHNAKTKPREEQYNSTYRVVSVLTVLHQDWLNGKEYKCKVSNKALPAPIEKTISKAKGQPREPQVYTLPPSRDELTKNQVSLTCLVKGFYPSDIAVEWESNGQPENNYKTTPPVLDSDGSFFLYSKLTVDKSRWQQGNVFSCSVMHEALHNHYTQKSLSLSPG
Chain of fucosylated anti-PD-L1 IgG1 antibody (avelumab) (LC): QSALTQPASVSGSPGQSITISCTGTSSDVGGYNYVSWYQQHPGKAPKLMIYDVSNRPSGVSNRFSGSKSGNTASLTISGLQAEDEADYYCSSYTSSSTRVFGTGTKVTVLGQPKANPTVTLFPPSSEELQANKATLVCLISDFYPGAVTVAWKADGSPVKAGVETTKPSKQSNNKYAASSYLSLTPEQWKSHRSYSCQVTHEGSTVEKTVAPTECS
Chain of afucosylated anti-PD-L1 IgG1 antibody (avelumab) (HC): as the sequence (HC) above
Chain of afucosylated anti-PD-L1 IgG1 antibody (avelumab) (LC): as the sequence (LC) above

Substance: afucosylated anti-PD-L1 IgG1 antibody (avelumab)
EC50 mean, ADCC in KILR-A549 cells (NK cells) [2]: 0.0054 nM

Substance: fucosylated anti-CD20 IgG1 antibody (obinutuzumab)
EC50 mean, ADCC in KILR Raji cells (NK cells) [2]: 0.033 nM | EC50 mean, ADCP in KILR Raji cells (M2c macrophages) [1]: 0.82 nM | EC50 mean, FcγRIIa signaling in ADCP reporter assay (Raji targets) [3]: 7.1 nM | EC50 mean, FcγRIIIa signaling in ADCC reporter assay (Raji targets) [4]: 7.1 nM

Substance: fucosylated anti-PD-L1 IgG1 antibody (avelumab)
EC50 mean, FcγRIIIa signaling in ADCC reporter assay (HEK-PD-L1 targets) [4]: 0.049 nM

Second part, the substance after the results:

EC50 mean, ADCP in KILR Raji cells (M2c macrophages) [1]: 0.37 nM
Substance: afucosylated anti-CD20 IgG1 antibody (obinutuzumab)

fold enhancement of binding by afucosylation (FcγRIIa): 10 fold
Substance: afucosylated version of Ipilimumab (antibody)
